{"source": "patent US11789019B2", "about": "(priority 2014, dated 2023)", "molecules": {"B1": {"name": "rCalnexin: recombinant Paracoccidioides brasiliensis Calnexin with C-terminal 6×His tag expressed in E. coli, 63 kD (protein)", "chain": "MRLNASLASLILSSIALIGNVHAEDEVKEDATSTSSVIEKPTFTPTTLKAPFLEQFTDGWETRWTPSHAKKEDSKSEEDWAYVGTWAVEEPHVFNGMVGDKGLVVKNPAAHHAISAKFPKKIDNKGKTLVVQYEVKLQNSLNCGGAYMKLLQDNKKLHAEEFSNTSPYVIMFGPDKCGVTNKVHFIFKHKNPKTGEYEEKHMKLPPAVRVSKLSTLYTLIVNPDQSFQIRIDGAAVKNGTLLEDFSPAVNPEKEIDDPEDKKPEDWVDEAHIPDPEATKPEDWDEDAPYEIVDTDATQPEDWLVDEPTSIPDPEAQKPEDWDDEEDGDWIPPTIPNPKCSEVSGCGMWEPPMKKNPEYKGKWTAPMIDNPAYKGPWAPRKIANPNYFEDKTPSNFEPMGAIGFEIWTMQNDILFDNIYIGHSVEDAEKLKAETWDLKHPVEVAEEEAARPKDEEKKEGTLSFKEAPVKYIRGKIELFISLALENPVEAVKAVPEVAGGLGALLVTLVLIIVGAVGLGSPSPAPAAKKQAEKGKEKTAEAVSTAADNVKGEAKKRSGKAGE"}}, "key": {"1807 cells [1]": {"system": "1807 cells", "assay_type": "cell-based, mouse", "conditions": "calnexin peptide #1 13 amino acid sequence of the named species"}, "[2]": {"target": "recombinant Calnexin (Paracoccidioides brasiliensis Calnexin with C-terminal 6xHis tag, from E. coli) (Paracoccidioides brasiliensis)"}, "[3]": {"system": "calnexin peptide #1-specific CD4+ T cells", "assay_type": "in vivo, mouse"}, "[4]": {"system": "B. dermatitidis strain 26199", "assay_type": "in vivo, Blastomyces dermatitidis"}, "human CD4+ T cells": {"system": "human CD4+ T cells", "assay": "In vitro stimulation and identification of activated human T cells (PBMC, CD154 enrichment, CD137)", "assay_type": "cell-based"}, "1807 cells [5]": {"system": "1807 cells", "assay": "In vivo activation and proliferation of adoptively transferred 1807 cells", "conditions": "emulsified in complete Freund's adjuvant; CD44, CFSE"}, "[6]": {"conditions": "10 μg/ml, CD137 on CD154 enriched CD4+ cells, positive >3-fold over medium alone"}}, "note": "Entries after “also recorded” stand apart in the source; their conditions may differ. Where two headings read alike, the source gives them in different places."}
{"molecule": "LVMKSRASHYAIS (Candida albicans) [Candida albicans_5314]", "values": [{"measurement": "1807 reactive", "setting": "1807 cells [1]; listed as SEQ ID NO: 9", "value": "not reactive"}]}
{"molecule": "1807 T-cell receptor (Blastomyces-specific TCR transgenic 1807 CD4+ T cells)", "values": [{"measurement": "activation (CD44) and proliferation (CFSE) of adoptively transferred 1807 cells in vivo", "setting": "[2]", "value": 85, "unit": "%"}]}
{"molecule": "LVVKNPAAHHAIS (Blastomyces dermatitidis of strains 26199, 18808, Er-3, 14081; Histoplasma capsulatum of strains G186AR, Nam1, H88, H143; Aspergillus sp.1 of strain group.1; Arthroderma; listed as Ajellomyces capsulatus, listed as Ajellomyces dermatitidis, listed as Arthroderma benhamiae) [Peptide #1, synthetic 13 aa peptide, residues 103-115 of B. dermatitidis calnexin]", "values": [{"measurement": "calnexin-specific T cells vs. number of cells in control mice", "setting": "[3]; delivery via the i.v. route", "value": "more than 20 fold"}, {"measurement": "pool of calnexin-specific T cells in the draining lymph nodes and spleen", "setting": "[3]; delivery via the i.v. route", "value": "> 1000", "unit": "cells"}, {"measurement": "tetramer positive CD4+ T cells per animal", "setting": "[3]; naïve C57BL/6 mice", "value": 30}, {"measurement": "protection against infection compared to preceding approaches", "setting": "[4]; i.v. delivery of calnexin peptide", "value": "vaccine efficacy was unchanged"}]}
{"molecule": "LVLKNEAAHHAIS (listed as Pneumocystis carinii) [Pneumocystis carinii_Rat Form 1]", "values": [{"measurement": "1807 reactive", "setting": "1807 cells [1]; listed as SEQ ID NO: 6", "value": "not reactive"}]}
{"molecule": "LVLKSRAKHHAIS (listed as Homo sapiens) [SEQ ID NO: 10, reference compound]", "values": [{"measurement": "1807 reactive", "setting": "1807 cells [1]", "value": "not reactive"}]}
{"molecule": "B1", "values": [{"measurement": "tetramer-positive cells displaying CCR6 or CXCR3", "setting": "[3]; draining lymph nodes after vaccination", "value": "15-20%"}, {"measurement": "proportion of CD44+ CD4+ T cells recruited to lung that are tetramer positive", "setting": "[3]; mouse, in vivo", "value": "more than doubles"}, {"measurement": "tetramer positive lung cells that produced IL-17", "setting": "[3]; mouse, in vivo", "value": "about 50"}, {"measurement": "tetramer-positive cells recruited to the lung that were IL-17 producers", "setting": "[3]; mouse, in vivo", "value": "~30", "unit": "%"}, {"measurement": "survival", "setting": "[4]; in vivo", "value": "prolonged survival"}, {"measurement": "immune subjects that responded", "setting": "human CD4+ T cells; [6]", "value": "five of six"}, {"measurement": "non-immune subjects that responded", "setting": "human CD4+ T cells; [6]", "value": "One of four"}, {"measurement": "concentration dependence of CD4+ T cell response", "setting": "human CD4+ T cells; immune subjects", "value": "dose-dependent; also recorded: concentration-dependent manner"}, {"measurement": "frequency of activated (CD154) cells compared with Hsp60", "setting": "human CD4+ T cells; immune subjects", "value": "similar"}, {"measurement": "response in the presence of polymyxin B (LPS contribution)", "setting": "human CD4+ T cells; immune subjects", "value": "not due to contaminating LPS; also recorded: retained in the presence of polymyxin B"}, {"measurement": "transferred 1807 cells activated and proliferating", "setting": "1807 cells [5]", "value": "> 85", "unit": "%"}]}
